Laboratory results published in publication PMC7521651, “Intracerebroventricular enzyme replacement therapy with β-galactosidase reverses brain pathologies due to GM1 gangliosidosis in mice” (The Journal of Biological Chemistry, 2019).

How the values were obtained:
[1] = molecular target: the molecule itself; assay: AUC; sedimentation equilibrium, 12,000 and 14,000 rpm, 20 mM sodium acetate pH 5, 150 mM NaCl, 3 mM KCl; dimer to monomers, limit calculated from detection of 10% monomer
[2] = molecular target: the molecule itself; assay: AUC; sedimentation equilibrium, 12,000 and 14,000 rpm, 25 °C, 20 mM sodium phosphate pH 7.4, 150 mM NaCl, 3 mM KCl; monomer-dimer equilibrium model (SEDPHAT); dimer to monomers

B1: recombinant human β-gal (rhβ-gal) (enzyme)
chain: QRMFEIDYSRDSFLKDGQPFRYISGSIHYSRVPRFYWKDRLLKMKMAGLNAIQTYVPWNFHEPWPGQYQFSEDHDVEYFLRLAHELGLLVILRPGPYICAEWEMGGLPAWLLEKESILLRSSDPDYLAAVDKWLGVLLPKMKPLLYQNGGPVITVQVENEYGSYFACDFDYLRFLQKRFRHHLGDDVVLFTTDGAHKTFLKCGALQGLYTTVDFGTGSNITDAFLSQRKCEPKGPLINSEFYTGWLDHWGQPHSTIKTEAVASSLYDILARGASVNLYMFIGGTNFAYWNGANSPYAAQPTSYDYDAPLSEAGDLTEKYFALRNIIQKFEKVPEGPIPPSTPKFAYGKVTLEKLKTVGAALDILCPSGPIKSLYPLTFIQVKQHYGFVLYRTTLPQDCSNPAPLSSPLNGVHDRAYVAVDGIPQGVLERNNVITLNITGKAGATLDLLVENMGRVNYGAYINDFKGLVSNLTLSSNILTDWTIFPLDTEDAVRSHLGGWGHRDSGHHDEAWAHNSSNYTLPAFYMGNFSIPSGIPDLPQDTFIQFPGWTKGQVWINGFNLGRYWPARGPQLTLFVPQHILMTSAPNTITVLELEWAPCSSDDPELCAVTFVDRPVIGSSVTYDHPSKPVEKRLMPPPPQKNKDSWLDHV
modifications: N-linked glycans; about 9% of the total glycan composition is bisphosphorylated oligomannose (BPM7)
notes: human lysosomal β-galactosidase (GLB1), secreted from CHO cells as the precursor, nonlysosomal enzyme (not the lysosomally processed mature form); No tag is mentioned; PDB 3THC is another preparation, treated by limited proteolysis, with residues 648-677 not determined; also called β-galactosidase; lysosomal β-gal
**Q.** What does the source list for B1?
**A.** Kd [1]: ≤ 2 nM; stoichiometry N [1]: 2; Kd [2]: 243 nM
